Source: patent publication US20120178908A1 (Novo Nordisk, published 2012)

How the values were obtained:
[1] = target: T1, human fibrinogen (HCI-0150R, Haematologic Technologies) (human, UniProt P02671 20-629; P02675 31-491; P02679 27-437, limits assumed); experiment: SPR (Biacore T100), TLT1 immobilised on CM5, fibrinogen as analyte
T1 construct: Chain composition is general knowledge
T1 sequence (looked up) 1: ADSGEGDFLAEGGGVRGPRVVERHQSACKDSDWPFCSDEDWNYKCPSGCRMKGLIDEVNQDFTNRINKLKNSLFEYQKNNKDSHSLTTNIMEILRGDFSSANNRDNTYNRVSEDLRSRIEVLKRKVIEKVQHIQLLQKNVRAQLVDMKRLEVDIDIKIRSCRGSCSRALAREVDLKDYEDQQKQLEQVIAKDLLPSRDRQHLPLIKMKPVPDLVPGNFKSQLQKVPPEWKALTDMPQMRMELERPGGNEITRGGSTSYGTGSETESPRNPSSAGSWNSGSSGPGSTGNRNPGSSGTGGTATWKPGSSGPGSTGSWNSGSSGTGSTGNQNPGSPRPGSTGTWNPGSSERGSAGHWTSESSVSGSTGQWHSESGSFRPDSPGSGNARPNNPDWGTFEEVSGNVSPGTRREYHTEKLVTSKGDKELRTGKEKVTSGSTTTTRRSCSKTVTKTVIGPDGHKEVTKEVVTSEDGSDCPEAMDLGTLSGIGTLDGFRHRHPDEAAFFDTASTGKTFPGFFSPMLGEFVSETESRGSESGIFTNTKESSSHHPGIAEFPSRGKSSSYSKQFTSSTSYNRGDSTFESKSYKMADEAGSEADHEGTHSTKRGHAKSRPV
T1 sequence (looked up) 2: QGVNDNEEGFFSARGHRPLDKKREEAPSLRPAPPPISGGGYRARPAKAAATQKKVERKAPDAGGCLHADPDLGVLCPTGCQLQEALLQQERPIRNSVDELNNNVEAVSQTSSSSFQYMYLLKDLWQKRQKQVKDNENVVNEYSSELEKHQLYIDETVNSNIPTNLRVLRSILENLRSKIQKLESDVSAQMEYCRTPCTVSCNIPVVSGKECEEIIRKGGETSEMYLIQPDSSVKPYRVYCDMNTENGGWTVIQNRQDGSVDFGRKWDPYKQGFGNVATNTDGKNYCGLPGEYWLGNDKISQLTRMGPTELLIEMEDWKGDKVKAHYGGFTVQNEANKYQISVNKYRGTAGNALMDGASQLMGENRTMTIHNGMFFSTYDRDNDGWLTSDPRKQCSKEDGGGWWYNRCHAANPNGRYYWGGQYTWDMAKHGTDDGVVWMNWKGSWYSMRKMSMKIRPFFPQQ
T1 sequence (looked up) 3: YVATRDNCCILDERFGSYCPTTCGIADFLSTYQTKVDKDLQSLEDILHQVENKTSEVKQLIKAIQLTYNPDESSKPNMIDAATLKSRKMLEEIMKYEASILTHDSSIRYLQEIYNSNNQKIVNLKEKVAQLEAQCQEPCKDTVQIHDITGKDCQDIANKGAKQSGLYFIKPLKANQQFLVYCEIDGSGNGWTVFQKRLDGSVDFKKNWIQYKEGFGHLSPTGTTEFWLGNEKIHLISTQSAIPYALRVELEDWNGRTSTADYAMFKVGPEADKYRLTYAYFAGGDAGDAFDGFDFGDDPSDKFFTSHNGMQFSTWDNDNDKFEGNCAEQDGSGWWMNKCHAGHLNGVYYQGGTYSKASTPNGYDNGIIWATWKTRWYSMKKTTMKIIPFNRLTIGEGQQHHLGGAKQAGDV
Protocol: (§1) Human TLT1 was immobilised to a level of approx 1000 RU on a CM5 chip (50 μg/ml diluted in Na-acetate, pH 4.0) using the standard procedure recommended by the supplier. Four-fold dilutions of human fibrinogen from 200 nM to 0.2 nM were tested for binding to the immobilized TLT1. Running and dilution buffer: 10 mM HEPES, 150 mM, 0.005% p20, pH 7.4. Regeneration was obtained by 10 mM Glycine, pH 1.7. Determination of kinetic and binding constants (kₒₙ, koff, KD) was obtained assuming a 1:1 interaction of TLT1 and fibrinogen using the Biacore T100 evaluation software.

[2] = target: T1, human fibrinogen (HCI-0150R, …); experiment: SPR (Biacore T100), TLT1 immobilised on CM5, fibrinogen 200 nM to 0.2 nM as analyte
Protocol: as §1

[3] = target: T2, TLT-1 receptor on the surface of activated human platelets (human, UniProt Q86YW5 16-311); experiment: cell-based or functional assay
T2 sequence: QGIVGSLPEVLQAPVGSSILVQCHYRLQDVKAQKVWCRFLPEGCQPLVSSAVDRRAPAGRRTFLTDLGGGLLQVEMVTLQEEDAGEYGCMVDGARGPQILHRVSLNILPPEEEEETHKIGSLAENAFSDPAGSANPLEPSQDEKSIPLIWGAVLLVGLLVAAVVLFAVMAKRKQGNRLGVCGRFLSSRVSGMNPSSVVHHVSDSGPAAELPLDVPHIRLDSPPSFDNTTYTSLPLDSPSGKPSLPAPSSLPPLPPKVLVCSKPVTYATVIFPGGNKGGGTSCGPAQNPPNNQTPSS

[4] = target: T3, TLT-1 18-188 relipidated in 20:80 PS:PC vesicles (human, UniProt Q86YW5 18-188); experiment: cell-based or functional assay
T3 sequence: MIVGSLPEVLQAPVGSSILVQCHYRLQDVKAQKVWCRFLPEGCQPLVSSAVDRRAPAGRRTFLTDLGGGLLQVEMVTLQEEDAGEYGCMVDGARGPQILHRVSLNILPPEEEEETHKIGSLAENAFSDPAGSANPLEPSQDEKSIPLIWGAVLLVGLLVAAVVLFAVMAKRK

[5] = target: Fab-hTF.1-219 fusion proteins (those tested in FIG. 7)
[6] = target: T4, hTF.1-219 (soluble tissue factor)
T4 chain: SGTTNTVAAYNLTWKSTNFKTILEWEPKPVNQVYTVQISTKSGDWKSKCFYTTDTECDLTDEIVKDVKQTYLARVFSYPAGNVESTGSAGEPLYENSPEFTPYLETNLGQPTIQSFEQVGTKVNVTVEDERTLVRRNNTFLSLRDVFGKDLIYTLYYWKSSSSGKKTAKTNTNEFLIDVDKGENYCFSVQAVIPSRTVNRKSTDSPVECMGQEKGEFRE

[7] = target: mAb-hTF.1-219 fusion proteins (those tested in FIG. 7)
[8] = target: T2, TLT-1 receptor on the surface of …; experiment: flow cytometry on activated human platelets, detection: anti HPC4 tag ab.

B1: TLT1 (human TLT-1, reagent of the SPR studies, source NN) (receptor)
chain: QGIVGSLPEVLQAPVGSSILVQCHYRLQDVKAQKVWCRFLPEGCQPLVSSAVDRRAPAGRRTFLTDLGGGLLQVEMVTLQEEDAGEYGCMVDGARGPQILHRVSLNILPPEEEEETHKIGSLAENAFSDPAGSANPLEPSQDEKSIP
Work on B1 yielded a Kd [1] of 94 nM, a koff [1] of 0.000392 s⁻¹ and a kon [2] of 4170 M⁻¹ s⁻¹.

B2: Fab 0012-LC-L4a-hTF.1-219; VH-CH1-HPC4 (other)
light: DVVMTQTPLSLPVSLGDQASISCRSSQSLVHRNGNTYFHWCLQKPGQSPKLLIYKVSNRFSGVPDRFSGSGSGTDFTLKISRVEAEDLGVYFCSQSTHVPYTFGGGTKLEIKRTVAAPSVFIFPPSDEQLKSGTASVVCLLNNFYPREAKVQWKVDNALQSGNSQESVTEQDSKDSTYSLSSTLTLSKADYEKHKVYACEVTHQGLSSPVTKSFNRGECGSGGGGSGGGGSGGGGSSGTTNTVAAYNLTWKSTNFKTILEWEPKPVNQVYTVQISTKSGDWKSKCFYTTDTECDLTDEIVKDVKQTYLARVFSYPAGNVESTGSAGEPLYENSPEFTPYLETNLGQPTIQSFEQVGTKVNVTVEDERTLVRRNNTFLSLRDVFGKDLIYTLYYWKSSSSGKKTAKTNTNEFLIDVDKGENYCFSVQAVIPSRTVNRKSTDSPVECMGQEKGEFRE
heavy: EVKLLESGGGLVQPGGSLKLSCAASGFDFSRYWMTWVRQAPGKGLEWIGEINPDSSTINYTPSLKDKFIISRDNAKNTLYLQMSEVRSEDTALYYCASGVFTSWGQGTLVTVSAASTKGPSVFPLAPCSRSTSESTAALGCLVKDYFPEPVTVSWNSGALTSGVHTFPAVLQSSGLYSLSSVVTVPSSSLGTKTYTCNVDHKPSNTKVDKRVESKEDQVDPRLIDGK
B2 was tested, and the “FX activation: response with resting platelets relative to activated platelets” value [3] was 8 % of the response with activated platelets and the “FVII-mediated FXa generation % Activity lipidated TLT-1” value [4] was 97%.

B3: Factor VIIa (FVIIa) (protein)
chain: ANAFLEELRPGSLERECKEEQCSFEEAREIFKDAERTKLFWISYSDGDQCASSPCQNGGSCKDQLQSYICFCLPAFEGRNCETHKDDQLICVNENGGCEQYCSDHTGTKRSCRCHEGYSLLADGVSCTPTVEYPCGKIPILEKRNASKPQGRIVGGKVCPKGECPWQVLLLVNGAQLCGGTLINTIWVVSAAHCFDKIKNWRNLIAVLGEHDLSEHDGDEQSRRVAQVIIPSTYVPGTTNHDIALLRLHQPVVLTDHVVPLCLPERTFSERTLAFVRFSLVSGWGQLLDRGATALELMVLNVPRLMTQDCLQQSRKVGDSPNITEYMFCAGYSDGSKDSCKGDSGGPHATHYRGTWYLTGIVSWGQGCATVGHFGVYTRVSQYIEWLQKLMRSEPRPGVLLRAPFP
In the case of B3, the “FVIIa amidolytic activity (chromogenic substrate S2288, A405)” value (shortened to “FVIIa amidolytic activity”) [5] is reported as “stimulate FVIIa amidolytic activity in a concentration dependent manner indistinguishable from that induced by hTF.1-219”, the “FVIIa amidolytic activity” value [6] is reported as “Binding of hTF.1-219 to FVIIa increases the FVIIa catalytic activity” and the “FVIIa amidolytic activity” value [7] is reported as “similarly stimulate FVIIa activity in a concentration dependent manner identical to that of hTF.1-219”.

B4: Fab 0012-LC-HPC4; VH-CH1 (Fab)
heavy: EVKLLESGGGLVQPGGSLKLSCAASGFDFSRYWMTWVRQAPGKGLEWIGEINPDSSTINYTPSLKDKFIISRDNAKNTLYLQMSEVRSEDTALYYCASGVFTSWGQGTLVTVSAASTKGPSVFPLAPCSRSTSESTAALGCLVKDYFPEPVTVSWNSGALTSGVHTFPAVLQSSGLYSLSSVVTVPSSSLGTKTYTCNVDHKPSNTKVDKRVESK
light: DVVMTQTPLSLPVSLGDQASISCRSSQSLVHRNGNTYFHWCLQKPGQSPKLLIYKVSNRFSGVPDRFSGSGSGTDFTLKISRVEAEDLGVYFCSQSTHVPYTFGGGTKLEIKRTVAAPSVFIFPPSDEQLKSGTASVVCLLNNFYPREAKVQWKVDNALQSGNSQESVTEQDSKDSTYSLSSTLTLSKADYEKHKVYACEVTHQGLSSPVTKSFNRGECEDQVDPRLIDGK
notes: Anti-TLT-1 Fab without tissue factor; also called 0010; 0010 Fab
B4: binds [8].
